From the RNAGym collection of RNA variant scans (doi:10.1073/pnas.2313332121) come the findings set out here.

B1: TPR t1 (parent)
chain: GACCAAUCUGCCCUCAGAGCUCGAGAACAUCUUCGGAUGCAGAGGAGGCAGGCUUCGGUGGCGCGAUAGCGCCAACGUCCUCAACCUCCAAUGCAUCCCACCACAUGAUGAUGCCUGAAGAGCCUUGGUUUUUUG

The variants in the data set derive from B1. Kind of data set: polymerase ribozyme fitness, log enrichment relative to wild type (log ratio); higher = more active; in vitro selection for triplet polymerase activity. The method in brief: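 Libraries of mutants in each subunit of a heterodimeric triplet polymerase ribozyme were generated by PCR and transcribed. In triplicate, each went through one in vitro selection round: annealing with biotinylated primer, partner subunit and triplets; frozen incubation at −7 °C; gel excision of extended constructs; streptavidin-bead capture; RT-PCR. Fitness, taken from Illumina sequencing of input and output libraries, is the logarithm of a genotype's enrichment over wild-type enrichment, averaged across replicates with inverse-variance weights. The logarithm is base 2, and genotypes needed ≥10 input reads and ≥1 read per output to be kept.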
For GAUCAAGCUGCCCUCAGAGCUCGAGAACAUCUUCGGAUGCAGAGGAGGCAGGCUUCGGUGGCGCGAUAGCGCCAACGUCCUCAUCCUCCAAUGCAUCCCAUCACAUGAUUAUGCCUGAAGAGCCAUGGUUUUUUG [C3U U7G A84U C101U G110U U125A], the “polymerase ribozyme fitness (log ratio)” value was -3.16.
Regarding GACCAAUUUGCCCUCAGAGCUCGAGAACAUCUUCAGAUGCAGAGGAGGCAGGCUUCGGUGGCGCGAUAGCGCCAACGUCCUCAACCUCCAAUGCAUCCCACCACAUGAUGAUGCCUGAAGAGCCUUGGUUUUUUG [C8U G35A], the “polymerase ribozyme fitness (log ratio)” value is -3.11.
The figure for GACCAAUCUGCUCUCCGAGCUCGAGAACAUCUUCGGAUGCAGAGGAGGCAGGCUUCGGAGGCGCGAUAGCGCCAACGUCCUCAACCUCCAACGCAUCCCACCACAUGAUGAUGCCUGAAGAGCAUUGGUUUUUUG [C12U A16C U59A U92C C124A] is 0.146.
In the case of GACCAAUCUGCCCUCAGAGCUGGAGAACAUCUUCGGAUGCACAGGAGGCAGGCUUCGGUGUCGCGAUAGCGCCAACGUCCUCAACCUCUAAUGCAUCCCACCACAUGAUGAUGCCUGAAGAGCCUUGGUUUUUUG [C22G G42C G61U C89U] it was -5.61.
In the case of GACCAUUCUGCCCUCAGAGCUCGAGAACAUCUUCGGAUGCAGAGGAGGCAGGCUUCGGUGGCGCGAUAUCGCCAACGUCCUCAACCUCCAAUGCAUCCCACCACAUGAUGAUGCCUGAAGAGCCUUGGUUUUUUG [A6U G69U] it was 0.777.
Take GACCAAUCUGCCCUCAGAGCUCGAGAACAUCUUCGUAUGCAGAGGAGGCAGGCUUCGGUGGCGCGAUAGCGCCAACGUCCUCAACCUCCAAUGCAUCCCACCACAUGAUUAUGCCUGAAAAGCCUUGGUUUUUUG [G36U G110U G120A]: the “polymerase ribozyme fitness (log ratio)” value was -2.35.
The figure for GACCAAUCUGCCCUCAGAGCUCGAGAACAUCUUCGGAUGCAGAGGGGGCAGGCUUCGGUGGCGCGAUAGGGCCAACGUCCUCAACCUCCAAUGUAUCCCACCACAUGAUGAUGCCUGAAGAGCCUUGGUUUUUUG [A46G C70G C94U] is -3.9; for GACCAAUCUGCCGUGAGAGCUCGAGUACAUCUUCGGAUGCAGAGGAGGCAGGCUUCGGUGGCGCGAUAGCGCCAACGUCCUCAACCUCCAAUGAAUCCCACCACAUGAUGAUGUCUGAAGAGCCUUGGUUUUUUG [C13G C15G A26U C94A C114U] it is -6.55; for GACCAAUCUGCCCUCAGAGCUCGAGAACAUCUUCGGAUGCAGAGGAGGCAGGCUUCGGUGGCCCGAUAGCGCCAACGUCCUCAACCUCCAAUGCAUCCCACCACAUGAUGAUGCCUGAAGAGCCUUGGUAUUUUG [G63C U130A] it is -0.551.
The figure for GACCAAUCUGCCCGCAGAGCUCGAGAACAUCUUCGGAUGCAGAGGAGACGGGCUUCGGUGGCGCGAUAGCGACAACGUCCUCAACCUCCAAUGCAUCCCACCACAUGAUGAUGCCUGAACCGCCUUGGUUUUUUG [U14G G48A A50G C72A G120C A121C] is -1.94; for GACCAAUUUGCCCUCAGAGCUCGAGAACAUCUUCGGAUGCAGAGGAGGCAGGCUUCGGUGGCGCGAUAGCGCCAACGUCCUCAACCUCCAAUGCAUCCCACCACAUGAUGAUGCUUAAAGAGCCUUGGUUUUUUG [C8U C115U G117A] it is -0.753; for GACCAAUCUGCCCUCAGAGCUCGAGAACAUCUUCGGAUGCAGAGGAGGCAGGUUGCGGUGGCGCGAUAGCGCCAACGUCCUCAACCUCCAAUGCAUCCCACCACAUGAUGAUGCCUGAAGAGCCUUGGUUUUUUG [C53U U55G] it is -0.16.
In the case of GACCAAUCUGCCCUUAGAGCUCGAGAACAUCUUCGGAUGCAGUGGAGGCAGGCUUCGGUGGCGCGAUAUCGCCAACGUCCUCAACCUUCACUGCAUCCCACCACAUGAUGAUGCCUGAACAGCCUUGGUUUUUUG [C15U A43U G69U C88U A91C G120C] it was 0.39.
GACCAAUCUGCCCUCAGAGCUCGAGAACAUCUUCGGAUGCAGAGGAGGCAGGCUUCGGUGGCGCGAUAGCGCCAACGUCUUCAACCUCCAAUGCAUCCCACCACAUGAUAAUGCCUGAAGAGCCUUGGUUUUUUG [C80U G110A]: the “polymerase ribozyme fitness (log ratio)” value is -1.21.
Consider GACCAAUCUGCCCUCAGAGCUCGAGAACAUCUUCGGAUGCAGAGGAGGCAGGCUUCGGUGGCGCGAUAGCGCCAACGUCCUCAACCACCAAUGCAUCCCACCACAUGAUGAUGCCUGAAGAGCCUUGGUCUUUUG [U87A U130C], for which the “polymerase ribozyme fitness (log ratio)” value is -1.39.
Take GACCAAUCUGCCCUCAGAGCUCGAGAACAUCUUCGGAUGCAGAGGAGGCAGGCUUCGGUGGCGCGAUAGCGCCAACGUCCUCAACCUGCAAUGCAUCCCACCACAUGAUAAUGCCUGAAGAGCCUUGGUUUUUUG [C88G G110A]: the “polymerase ribozyme fitness (log ratio)” value was -1.15.
The figure for GACCAAUCUGCCCUCAGAGCUCGAGAACAUCUUCGGAUGGAGAGGAGGUAGGCUUCGGUGGCGCGAUAACGCCAACGACCUCAACCUCCAAUGCAUCCCACCACAUGAUGAUGCCUGAAGAGCCUUGGUUUUUUG [C40G C49U G69A U78A] is -4.96; for GACCAAUCUGCCCUCAGAGCCCGAGAACAUCUUCGGAUGCAGAGGAGGCAGGCUUCGGUGGCGCGAUAGCGCCAACGUCCUCAACCUCCAAUGCAUCCCACCACAUGAUGCUGCCUGAAGAGCCUUGGUUUUUUG [U21C A111C] it is 0.739.
In the case of GACCAAUCUGCCCUUAGAGCUCGAGAACAUCUUCGGAUGCAGAGGAGGCAGGCUUCGGUGGCGCGAUAGCGCCAACGUCCUCAACCUCCAAUGCAUCCCACCACAUGAUCAUGCCUGAAGAGCCUUGGUUUUUUG [C15U G110C] it was -4.52.
Take GACCAAUCUGCCCUCAAAGCUCGAGAACAUCUUCGGAUGCAGAGGAGGCAGGCUUCGGUGGCGCGAUAGCGGCAACGUCCUCAACCUCCAAUGCAUCCCACCACAUGAUGAUGCCUGAAGAGCCUUGGUUUUUUG [G17A C72G]: the “polymerase ribozyme fitness (log ratio)” value was -3.28.
In the case of GACCAACCUGCCCUCAGAGCUCGAGAACAUCUUCGGAUGCAGAGGAGGUCGGCUUCGGUUGCGCGAUAGCGCCAACGUCCUCAACCUCCAAUGCAUCCCACCACAUGAUGAUGCCUGAAGAGCCUUAGUUUUUUG [U7C C49U A50C G60U G127A] it was -0.326.
